Experimental data published in patent publication US11278600B2, “Human alpha-galactosidase variants” (Codexis, Inc., priority 2014, dated 2022).
Substitutions are numbered along the chain they refer to.

B1: 661 (protein)
chain: LDNGLARTPTMGWLHWERFMCNLDCQEEPDSCISEKLFMEMAERMVTEGWKDAGYEYLCIDDCWMAPQRDSEGRLQADPQRFPHGIRQLANHVHSKGLKLGIYADVGNKTCAGFPGSFGYYDIDAQTFADWGVDLLKFDGCYCDSLENLADGYKHMSLALNRTGRPIVYSCEWPLYMWPFQKPNYTEIRQYCNHCRNFADIDDSWASIKSILDWTSRNQERIVDVAGPGGWNDPDMLVIGNFGLSWDQQVTQMALWAIMAAPLFMSNDLRAISPQAKALLQDKDVIAINQDPLGKQGYQLRKGDNFEVWERPLSGDAWAVAIINRQEIGGPRSYTIPVASLGKGVACNPACFITQLLPVKRQLGFYNWTSRLKSHINPTGTVLLQLENTMQTSLKDLL
modifications: Synthetic Polypeptide sequence of Variant No. 661 of mature Human GLA
B2: 665 (protein)
chain: B1 chain with R7C, C195W, W368A
modifications: Synthetic Polypeptide sequence of Variant No. 665 of mature Human GLA
B3: 664 (protein)
chain: B1 chain with T10P, C195W, Q252H, M253R, A254E, A261G
modifications: Synthetic Polypeptide sequence of Variant No. 664 of mature Human GLA
B4: 667 (protein)
chain: B1 chain with D30G, C195W
modifications: Synthetic Polypeptide sequence of Variant No. 667 of mature Human GLA
B5: 669 (protein)
chain: B1 chain with C195W, P262S
modifications: Synthetic Polypeptide sequence of Variant No. 669 of mature Human GLA
B6: 675 (protein)
chain: B1 chain with M65V, C195W
modifications: Synthetic Polypeptide sequence of Variant No. 675 of mature Human GLA
B7: 639 (protein)
chain: B1 chain with M39E, C195W, D247Y
modifications: Synthetic Polypeptide sequence of Variant No. 639 of mature Human GLA
B8: 663 (protein)
chain: B1 chain with E43D, C195W, A261G, W368A
modifications: Synthetic Polypeptide sequence of Variant No. 663 of mature Human GLA
B9: 673 (protein)
chain: B1 chain with C195W, N377Y
modifications: Synthetic Polypeptide sequence of Variant No. 673 of mature Human GLA
B10: 662 (protein)
chain: B1 chain with C195W, V238I
modifications: Synthetic Polypeptide sequence of Variant No. 662 of mature Human GLA
B11: 666 (protein)
chain: B1 chain with C195W, P228L
modifications: Synthetic Polypeptide sequence of Variant No. 666 of mature Human GLA
B12: 670 (protein)
chain: B1 chain with C195W, N305L
modifications: Synthetic Polypeptide sequence of Variant No. 670 of mature Human GLA
B13: 674 (protein)
chain: B1 chain with C195W, P234H
modifications: Synthetic Polypeptide sequence of Variant No. 674 of mature Human GLA
B14: 671 (protein)
chain: B1 chain with T10P, C195W, W368A
modifications: Synthetic Polypeptide sequence of Variant No. 671 of mature Human GLA
B15: 672 (protein)
chain: B1 chain with D144Y, C195W
modifications: Synthetic Polypeptide sequence of Variant No. 672 of mature Human GLA
B16: 668 (protein)
chain: B1 chain with M39E, C195W
modifications: Synthetic Polypeptide sequence of Variant No. 668 of mature Human GLA

How the values were obtained:
Assay type in all cases: biochemical
[1] = HTP-analysis of yeast culture supernatants, no challenge (MUGal hydrolysis); details: activity of the variant/activity of Rd7BB (SEQ ID NO: 44)
Outline: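 Activity read as 4-methylumbelliferyl α-D-galactopyranoside hydrolysis: fluorescence (355/448 nm) after sodium carbonate stop, following 30-180 min at 37° C with 2 mM MUGal stock at pH 4.6–4.8. Enzyme source is unchallenged culture supernatant of INVSc1 yeast expressing GLA variants, grown 66-84 h at 30° C.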

[2] = HTP-analysis of supernatants pretreated with acid (MUGal hydrolysis); details: activity of the variant/activity of Rd7BB (SEQ ID NO: 44); challenge at pH 3.5
Outline: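 Yeast INVSc1 supernatant, GLA variants; acid challenge: McIlvaine pH 3.3-4.3, 37° C., 1-3 h. Assay: MUGal in McIlvaine pH 4.8 plus citrate pH 4.3, 37° C., 30-180 min, Na2CO3 stop, Ex 355/Em 448 nm.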

[3] = HTP-analysis of supernatants pretreated with base (MUGal hydrolysis); details: activity of the variant/activity of Rd7BB (SEQ ID NO: 44); challenge at pH 7.5
Outline: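 Fluorescence of released 4-MU (Ex 355 nm, Em 448 nm) after carbonate quench reports MUGal hydrolysis by GLA variants secreted from INVSc1 yeast. Before the acidic (pH 4.3-4.8) 30-180 min reaction at 37° C, supernatants had been pre-incubated at pH 7.0-9.7 for 1-18 h at 37° C.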

Row | Molecule | Relative Activity of GLA Variants After No Challenge (NC) [1] | Relative Activity of GLA Variants After Challenge at pH 3.5 [2] | Relative Activity of GLA Variants After Challenge at pH 7.5 [3]
1 | B1 | − (<0.5 relative activity to Rd7BB (SEQ ID NO: 44)) | − (<0.5 relative activity to Rd7BB (SEQ ID NO: 44)) | − (<0.5 relative activity to Rd7BB (SEQ ID NO: 44))
2 | B2 | + (>0.5 to 1.5 relative activity over Rd7BB (SEQ ID NO: 44)) | + (>0.5 to 1.5 relative activity over Rd7BB (SEQ ID NO: 44)) | + (>0.5 to 1.5 relative activity over Rd7BB (SEQ ID NO: 44))
3 | B3 | − (<0.5 relative activity to Rd7BB (SEQ ID NO: 44)) | − (<0.5 relative activity to Rd7BB (SEQ ID NO: 44)) | − (<0.5 relative activity to Rd7BB (SEQ ID NO: 44))
4 | B4 | + (>0.5 to 1.5 relative activity over Rd7BB (SEQ ID NO: 44)) | + (>0.5 to 1.5 relative activity over Rd7BB (SEQ ID NO: 44)) | + (>0.5 to 1.5 relative activity over Rd7BB (SEQ ID NO: 44))
5 | B5 | + (>0.5 to 1.5 relative activity over Rd7BB (SEQ ID NO: 44)) | − (<0.5 relative activity to Rd7BB (SEQ ID NO: 44)) | − (<0.5 relative activity to Rd7BB (SEQ ID NO: 44))
6 | B6 | + (>0.5 to 1.5 relative activity over Rd7BB (SEQ ID NO: 44)) | + (>0.5 to 1.5 relative activity over Rd7BB (SEQ ID NO: 44)) | − (<0.5 relative activity to Rd7BB (SEQ ID NO: 44))
7 | B7 | − (<0.5 relative activity to Rd7BB (SEQ ID NO: 44)) | − (<0.5 relative activity to Rd7BB (SEQ ID NO: 44)) | − (<0.5 relative activity to Rd7BB (SEQ ID NO: 44))
8 | B8 | + (>0.5 to 1.5 relative activity over Rd7BB (SEQ ID NO: 44)) | + (>0.5 to 1.5 relative activity over Rd7BB (SEQ ID NO: 44)) | − (<0.5 relative activity to Rd7BB (SEQ ID NO: 44))
9 | B9 | + (>0.5 to 1.5 relative activity over Rd7BB (SEQ ID NO: 44)) | + (>0.5 to 1.5 relative activity over Rd7BB (SEQ ID NO: 44)) | − (<0.5 relative activity to Rd7BB (SEQ ID NO: 44))
10 | B10 | + (>0.5 to 1.5 relative activity over Rd7BB (SEQ ID NO: 44)) | + (>0.5 to 1.5 relative activity over Rd7BB (SEQ ID NO: 44)) | + (>0.5 to 1.5 relative activity over Rd7BB (SEQ ID NO: 44))
11 | B11 | + (>0.5 to 1.5 relative activity over Rd7BB (SEQ ID NO: 44)) | + (>0.5 to 1.5 relative activity over Rd7BB (SEQ ID NO: 44)) | − (<0.5 relative activity to Rd7BB (SEQ ID NO: 44))
12 | B12 | + (>0.5 to 1.5 relative activity over Rd7BB (SEQ ID NO: 44)) | + (>0.5 to 1.5 relative activity over Rd7BB (SEQ ID NO: 44)) | + (>0.5 to 1.5 relative activity over Rd7BB (SEQ ID NO: 44))
13 | B13 | − (<0.5 relative activity to Rd7BB (SEQ ID NO: 44)) | − (<0.5 relative activity to Rd7BB (SEQ ID NO: 44)) | − (<0.5 relative activity to Rd7BB (SEQ ID NO: 44))
14 | B14 | ++ (>1.5 relative activity over Rd7BB (SEQ ID NO: 44)) | ++ (>1.5 relative activity over Rd7BB (SEQ ID NO: 44)) | + (>0.5 to 1.5 relative activity over Rd7BB (SEQ ID NO: 44))
15 | B15 | + (>0.5 to 1.5 relative activity over Rd7BB (SEQ ID NO: 44)) | + (>0.5 to 1.5 relative activity over Rd7BB (SEQ ID NO: 44)) | − (<0.5 relative activity to Rd7BB (SEQ ID NO: 44))
16 | B16 | + (>0.5 to 1.5 relative activity over Rd7BB (SEQ ID NO: 44)) | + (>0.5 to 1.5 relative activity over Rd7BB (SEQ ID NO: 44)) | + (>0.5 to 1.5 relative activity over Rd7BB (SEQ ID NO: 44))
